Experimental data reported in the supplement of paper PMC12042874.
± gives the uncertainty stated by the source.

Experiment: amyloid nucleation score (Sup35N fusion, yeast selection) (log enrichment); library NNK1; higher = more nucleation; inactive = no reads after selection
Outline: (§1)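 The nucleation score is a DiMSum log enrichment of output over input reads, centred on the mode score of non-aggregating sequences. Sequences under 100 input reads were excluded, and reads came from Illumina sequencing of plasmid inserts. Psi-negative yeast expressing Sup35N fused to peptides of 20 random codons were induced with 100 μM copper sulfate for 24 hours and grown 7 days at 30°C on medium lacking adenine and uracil. Random libraries had three technical output replicates.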
In the case of DVGSNKGAIIGLMVGGVVIA, the amyloid nucleation score is reported as 3.61 ± 0.19. GVLLV showed an amyloid nucleation score of 0.129 ± 0.93. For YHLTQYDTMLLQYMWNHDWD, the amyloid nucleation score was -0.707 ± 0.89. Substance YHSSYVK has an amyloid nucleation score of -1.36 ± 2.7. With YHVMD the amyloid nucleation score was “inactive”. Substance YIDIVGSSW has an amyloid nucleation score of 4.83 ± 0.07. YIHLMRYARNLLPFRYCV showed an amyloid nucleation score of -0.641 ± 0.5. YIIYWGAQLSILHENSPSFG gave an amyloid nucleation score of 0.354 ± 0.33. For YILVNMMGVWVVKVTHKVN, the amyloid nucleation score was “inactive”. YILVYSSVTRRYHKSRSYVG showed an amyloid nucleation score of -0.09 ± 0.29. Work on YINVLVKAHGMMVPRRLKWV yielded an amyloid nucleation score of 0.086 ± 0.32. In the case of YIPICIRSYIKNAS, the amyloid nucleation score is reported as 0.413 ± 1.2. For YISNTRRLLQMIVCVMKSYG, the amyloid nucleation score was “inactive”. Substance YIVAVEHLLCSVRSYGHGMG has an amyloid nucleation score of 0.724 ± 0.83. With YIWFC the amyloid nucleation score was 6.28 ± 0.071. YIWSVYLLLCWHWCRMSCSG gave an amyloid nucleation score of 1.23 ± 0.6. Work on YIYEDFGG yielded an amyloid nucleation score of -0.407 ± 0.57. In the case of YKDYVDLERAFKLMPGQKLW, the amyloid nucleation score is reported as “inactive”. For YKGVGPIVIFIQWVYITVNN, the amyloid nucleation score was 4.1 ± 0.11. YKGWYFFYVCFSKLSIGS showed an amyloid nucleation score of -0.305 ± 0.72. Work on YKLLYGYWLDWREGRNHKPK yielded an amyloid nucleation score of 0.479 ± 0.32. Work on YKTEHNRSIDLLGISSSSFL yielded an amyloid nucleation score of -0.322 ± 1. Work on YLAGILHTCLTLDSDVRFYT yielded an amyloid nucleation score of 0.722 ± 0.54. With YLAQIELRLV the amyloid nucleation score was 0.053 ± 0.79. YLASREDDINMDASLLSTHA gave an amyloid nucleation score of 1.41 ± 0.66. In the case of YLDFNHM, the amyloid nucleation score is reported as “inactive”. YLELLPAYRLFTGLVVLLMI showed an amyloid nucleation score of 0.736 ± 0.13. With YLFMMAIRGAKTLVS the amyloid nucleation score was “inactive”. Work on YLFSIVFCNV yielded an amyloid nucleation score of 2.67 ± 0.29. In the case of YLIKCTTIAGRTGYSVTMRD, the amyloid nucleation score is reported as -0.341 ± 1. In the case of YLLLGYSHYQMNVLFNTRQS, the amyloid nucleation score is reported as “inactive”. Substance YLLYDQQVSLRFVWITLSVW has an amyloid nucleation score of 0.683 ± 0.41. YLLYEVSVLNYRPL showed an amyloid nucleation score of -0.285 ± 0.32. YLNILMSWI showed an amyloid nucleation score of -0.921 ± 0.66. YLQLSRAVQRVLTRRWSSI showed an amyloid nucleation score of 0.31 ± 0.52. For YLRLFFVRCGHPDSETSYRS, the amyloid nucleation score was 0.418 ± 0.33. YLTSANTSFTFESWWCL gave an amyloid nucleation score of 2.93 ± 0.22. YLVITLFPEIIIDYLSYLCP showed an amyloid nucleation score of 4.52 ± 0.079. With YLVTYVLSIRNCGIYIWIRR the amyloid nucleation score was 0.413 ± 0.49. For YMGELFTE, the amyloid nucleation score was 2.45 ± 0.15. In the case of YMLLTLGLTTLVCNSHRLVL, the amyloid nucleation score is reported as 0.026 ± 0.55. In the case of YMQGAFFQQTPSNLWQEGHY, the amyloid nucleation score is reported as -0.74 ± 0.84. Substance YMVLS has an amyloid nucleation score of 0.9 ± 0.85. YNAASKGEINPNAGNVILFV gave an amyloid nucleation score of 3.13 ± 0.1. Substance YNCMEYSDARHKSSTVRLHY has an amyloid nucleation score of -0.253 ± 0.62. In the case of YNCWSSLNFYNPIFLRTLLG, the amyloid nucleation score is reported as 3.46 ± 0.21. Work on YNFCILCSSPIIVFAAPVQR yielded an amyloid nucleation score of 8.034 ± 0.051. With YNFERDYLSVYHFAWLIP the amyloid nucleation score was 0.372 ± 0.54. In the case of YNFRTVNFHIGTPSICFGHD, the amyloid nucleation score is reported as “inactive”. With YNGGGSYNWVWMGNSPVKTR the amyloid nucleation score was 0.969 ± 0.61. YNLSGFDNGFSISLSCSDVA gave an amyloid nucleation score of 0.886 ± 0.74. In the case of YNSRGDCRTLVKRGMGNFCA, the amyloid nucleation score is reported as 0.191 ± 0.32. For YNSTAIHNYENRRDLHQLYL, the amyloid nucleation score was 0.139 ± 0.33. With YNVCGELQDNIRCYISLTVL the amyloid nucleation score was “inactive”. In the case of YPQMLVSVLRFMYY, the amyloid nucleation score is reported as 0.009 ± 0.26. YPSCAGVWFKHNRLFFV gave an amyloid nucleation score of 0.096 ± 0.79. In the case of YQSLVMFMEPDSRVLRVCRA, the amyloid nucleation score is reported as 0.104 ± 0.69. For YQWFMYVF, the amyloid nucleation score was 4.61 ± 0.11. With YRALLYFNGIMW the amyloid nucleation score was “inactive”. Substance YRCTLASNRLRFLWITSNVR has an amyloid nucleation score of -0.085 ± 0.58. Substance YREGHHPGWTMVKMMRTQVP has an amyloid nucleation score of 0.26 ± 0.6. YRGKRDKVVGSMMCMWRT showed an amyloid nucleation score of 0.518 ± 0.52. YRGLGFVERESRDRG showed an amyloid nucleation score of -0.418 ± 0.8. YRHTVIVY gave an amyloid nucleation score of 1.13 ± 0.21. For YRITERIFFDQKASHVWLIT, the amyloid nucleation score was -0.165 ± 0.41. YRKFHPGKRL gave an amyloid nucleation score of 0.193 ± 0.58. With YRLGSKISNSVKPRFDRLVE the amyloid nucleation score was “inactive”. With YRNGCTFGWWRWRR the amyloid nucleation score was 1.08 ± 0.28. YRNLGGLLGIELINIMLLLW showed an amyloid nucleation score of -0.429 ± 0.93. Substance YRRVKM has an amyloid nucleation score of -0.089 ± 0.53. Work on YRSYTRNWTLTIPGCTLRSL yielded an amyloid nucleation score of -1.93 ± 2.7. For YRWLLNRKTSSMSVFCNSLF, the amyloid nucleation score was “inactive”. With YRYHVSCTYAVSLGAAKSNA the amyloid nucleation score was -0.078 ± 0.72. YSCFSECYTKMSHTLSKNNL showed an amyloid nucleation score of 2.11 ± 0.32. YSDSMTIKRDSLWVIGTLEL gave an amyloid nucleation score of 1.94 ± 0.21. For YSEFRDSLRSGIPLVPFVIQ, the amyloid nucleation score was 0.066 ± 0.88. Work on YSFSRQVSMPSSYSFALF yielded an amyloid nucleation score of -0.742 ± 0.65. For YSGPGAGFGGLLCIGNAQNL, the amyloid nucleation score was -0.108 ± 0.62. YSGVPLARQCGADGLKGTGE showed an amyloid nucleation score of 0.724 ± 1.2. For YSHDSSSTIFRNETPLSTPM, the amyloid nucleation score was “inactive”. In the case of YSIDTGS, the amyloid nucleation score is reported as “inactive”. Work on YSIPNDLNPSCKSHLMPRGH yielded an amyloid nucleation score of 1.23 ± 0.41. In the case of YSMVI, the amyloid nucleation score is reported as “inactive”. Work on YSNIRFSMNIYRTLRDRLGA yielded an amyloid nucleation score of 5.12 ± 0.095. Substance YSQCSRVNFWISAYCVNYIN has an amyloid nucleation score of 7.03 ± 0.071. Work on YSRTNMFQ yielded an amyloid nucleation score of -0.649 ± 0.5. For YSSCFRSGIF, the amyloid nucleation score was -0.68 ± 0.6. With YSSWVKLASLVDRDVPQYDW the amyloid nucleation score was “inactive”. Work on YSVFALRINLFAYTIPNSVL yielded an amyloid nucleation score of -0.34 ± 0.24. In the case of YSWLVWGTSPV, the amyloid nucleation score is reported as 0.445 ± 0.38. Substance YSYNYGWTVAEELYNRCIGA has an amyloid nucleation score of 0.266 ± 0.36. With YSYSEGSLYQCSVSVV the amyloid nucleation score was 0.601 ± 0.7. Work on YTPMTTSWLLPSLEINI yielded an amyloid nucleation score of -0.069 ± 0.71. Work on YTTASDNHVWSWLEYWVRVI yielded an amyloid nucleation score of 0.368 ± 0.56. YTVPQSLSLLCSAYLILLDA gave an amyloid nucleation score of 0.561 ± 0.43. Work on YVIFCTPSFFIL yielded an amyloid nucleation score of 5.52 ± 0.068. For YVLLGFNYKTFYMSVGLDRE, the amyloid nucleation score was -0.005 ± 0.52. With YVNRVPLLEVLCP the amyloid nucleation score was -0.118 ± 1. In the case of YVTFGWIYTSLVPYRLEVIL, the amyloid nucleation score is reported as 0.243 ± 0.42. Work on YVTIIDKIYIWLDVVNRDLP yielded an amyloid nucleation score of 2.55 ± 0.29. YVWDAHIINVYLS showed an amyloid nucleation score of 6.51 ± 0.081. YVWLMH gave an amyloid nucleation score of 3.7 ± 0.11. In the case of YVYGYLNHRTSSGRMFFLFY, the amyloid nucleation score is reported as 0.077 ± 0.38. YWAKCGWQAGKRYEV showed an amyloid nucleation score of 0.803 ± 0.77. For YWARRYLWAGFFI, the amyloid nucleation score was -0.322 ± 1.1. With YWCLRSLMV the amyloid nucleation score was “inactive”. For YWHDVI, the amyloid nucleation score was 0.104 ± 1. YWILQV gave an amyloid nucleation score of 0.299 ± 0.73. YYCLKPRGQSIGYGGNCLKA showed an amyloid nucleation score of 0.134 ± 0.83. With YYCYLLTNHPNTNGSVAFRL the amyloid nucleation score was 0.934 ± 0.44. With YYDYGEYIIKGVLPWIRGFY the amyloid nucleation score was 0.513 ± 0.31. Substance YYGQII has an amyloid nucleation score of 1.54 ± 0.38. For YYISRVVVDGIRKYWGYLES, the amyloid nucleation score was -0.866 ± 1.9. In the case of YYRGCHLYSHHPLRGLLGGV, the amyloid nucleation score is reported as “inactive”. Substance YYSSHYVDIAHSKE has an amyloid nucleation score of 0.334 ± 0.32. YYSWQEDGFPFTNVSMFWS gave an amyloid nucleation score of -0.076 ± 0.37. YYWSYLALYSG showed an amyloid nucleation score of -0.57 ± 1.2.

Experiment: amyloid nucleation score (Sup35N fusion, yeast selection) (log enrichment); library NNK3; higher = more nucleation; inactive = no reads after selection
Outline: as §1
With GVLLV the amyloid nucleation score was “inactive”.

Experiment: amyloid nucleation score (Sup35N fusion, yeast selection) (log enrichment); library NNK2; higher = more nucleation; inactive = no reads after selection
Outline: as §1
Work on DVGSNKGAIIGLMVGGVVIA yielded an amyloid nucleation score of 2.4 ± 0.19.
